Measurements published in patent publication US7176188B2, “Method of lethally sensitizing human and animal cells” (UniversitéLaval, priority 2003, dated 2007).

Experiment: PARG activity of bacterial extracts expressing recombinant protein (TLC release of 32P-ADP-ribose from 32P-poly(ADP-ribose))
Assay type: biochemical, C. elegans
Conditions: for PARG activity (qualitative): bacterially expressed His-tagged protein, 24 h at 37° C.
Experimental: Cultures of M15-pREP4 bacteria transformed with pQE-PME-3L, were grown overnight at saturation at 37° C. Fresh cultures (1000 ml) were started with 50-mL overnight cultures and grown at 37° C. at OD600 nm 0.600. Cultures were then induced with 1 mM isopropyl-1-thio-β-d-galactopyranoside (IPTG) at 37° C. for 2.5 h. M15-pREP4 bacteria transformed with vector alone were also treated with 1 mM IPTG at 37° C. for 2.5 h. Cultures were pelleted at 3000×g for 10 min at 4° C., resuspended in 10 ml extraction buffer (50 mM KPO4, pH 7.5, 50 mM Kcl, 10 mM β-mercaptoethanol, 0.1% triton X-100) and passed twice at 16,000 psi in a French Pressure Cell (SLM-AMINCO®, Rochester, N.Y.) maintained at 4° C. Extracts were centrifuged for 10 min at 1000×g at 4° C. and protein concentration of supernatants were determined. Each supernatant (23.7 mg/ml for M15+pQE-30 and 22.2 mg/ml for pQE-PME-3L) were analyzed on SDS-PAGE and assayed for PARG activity.
PARG activity was determined according to Ménard et al (1987, Biochem. Cel Biol. 65: 668–673). Ten μl of worm or bacterial extracts were assayed for 24 h at 37° C. in the presence of ^32P-poly(ADP-ribose) followed by a thin layer chromatography. Radiolabeled ADP-ribose units released from ADP-ribose polymers were quantified directly on the TLC using an Instant Imager Electronic Autoradiography device (Canberra-Packard). One unit of PARG is defined as the amount of enzyme required to liberate 1 nmol of ADP-ribose per min at 37° C. under assay conditions (Menard and Poirier, 1987, Biochem. Cell Biol. 65: 668–673). Radiographic X-OMAT film was exposed to the TLC plate and placed at −80° C. for 24 h.

Row | Molecule | PARG activity compared to His-PME-4 (bacterial extracts, similar rate of bacterial expression) [times] | PARG activity (qualitative)
1 | His-PME-3L: His-tagged recombinant C. elegans PARG PME-3L (SEQ ID NO:9) expressed in bacteria from pQE-PME-3L (protein, His tag; PEPTIDE (1)...(781) PME-3L) MSKKFIELGDPVTQDEKDYEDYVGVGFAHQVPTMKRRKLTEHGNTTESKEDPEEPKSRDVFVSSQSSDESQEDSAENPEIAKEVSENCENLTETLKISNIESLDNVTERSEHTLDNHKSTEPMEEDVNNKSNIDVAINSDEDDELVLEENNKEMRDGEQVQQDLFADDQELIEYPGIMKDTTTQLDITDSEVETAQKMEMIEETEADSTFVGEDSKNQRQSGTTSDEVDADSQINLATKTVRTSSSSFLSTVSTCEAPAKGRARMYQKELEKHVIAFTEGNLTLQPDLNKVDPDRNYRYCTIPNFPASQGKLREDNRYGPKIVLPQRWREFDSRGRRRDSYFYFKRKLDGYLKCYKTTGYFMFVGLLHNMWEFDPDITYKLPALEMYYKEMSELVGREEVLEKFARVARIAKTAEDILPERIYRLVGDVESATLSHKQCAALVARMFFARPDSPFSFCRILSSDKSICVEKLKFLFTYFDKMSMDPPDGAVSFRLTKMDKDTFNEEWKDKKLRSLPEVEFFDEMLIEDTALCTQVDFANEHLGGGVLNHGSVQEEIRFLMCPEMMVGMLLCEKMKQLEAISIVGAYVFSSYTGYGHTLKWAELQPNHSRQNTNEFRDRFGRLRVETIAIDAILFKGSKLDCQTEQLNKANIIREMKKASIGFMSQGPKFTNIPIVTGWWGCGAFNGDKPLKFIIQVIAAGVADRPLHFCSFGEPELAAKCKKIIERMKQKDVTLGMLFSMINNTGLPHKHFEFYVFDRISTYLSSSEDVESSKSSPSVSRA | ~10 | display PARG activity
2 | His-PME-4: His-tagged recombinant C. elegans PARG PME-4 (SEQ ID NO:11) expressed in bacteria from pET23a-PME-4 (protein, His tag; PEPTIDE (1)...(485) PME-4) MDHENLMKYLEEFRSIRFQPDFQKVDAERNVRYCEITDFPISNISFELLETGVSQQWRNCDQNLFNEYLKTYKNGGYSQFEDLLFKIWGYSEEKERFDLPALKSFYRKMSEIVGEDEVLEKLARLVRITKSACEVLPEKIYRLVGDIESATFSHIQCASLIAWMFFSDTPRLSFIIILQKTTCVAVEKLKFLFTYFDKMSIDPPIGAVSFRKMRITHKQYLENWKLRETNLLPDVQVFDKMSIEETALCTQIDFANKRLGGGVLKGGAVQEEIRFMMCPEMMVAILLNDVTQDLEAISIVGAYVFSSYTGYSNTLKWAKITPKHSAQNNNSFRDQFGRLQTETVAIDAVRNAGTPLECLLNQLTTEKLTREVRKAAIGFLSAGDGFSKIPVVSGWWGCGAFRGNKPLKFLIQVIACGISDRPLQFCTFGDTELAKKCEEMMTLFRNNNVRTGQLFLIINSIGPPLNYSEQYVFDAIRAKINSTKA |  | display PARG activity
